Experiments:
[1] = molecular target: T1, intact ERBB3 extracellular domain (dI-IV, aa20-639) (Homo sapiens, UniProt P21860); experiment: ELISA; apparent; ERBB3 extracellular domain immobilised; 4-fold serial dilutions of IgG (1333-0.02 nM); detected with HRP-conjugated anti-human Fc
T1 construct: ERBB3/HER3 extracellular domain, domains I-IV, aa20-639; also called ERBB3 ECD; intact ERBB3 ECD; source: purified from culture supernatant by IMAC (HisTrap)

ERBB3 on BT-474 cells = molecular target: T2, ERBB3 on BT-474 cells (Homo sapiens, UniProt P21860); experiment: flow cytometry on cells; 0, 0.5, 2, 5 ug IgG with BT-474 cells (250,000 cells/assay); detected with FITC-conjugated anti-human Fc; details: one partner purified
T2 construct: ERBB3/HER3 receptor on the surface of BT-474 breast cancer cells; Also used for the functional rows, where the cells were BT-474, NCI-N87 and ACHN; also called HER3; source: endogenous, BT-474 cells

[2] = molecular target: T3, ERBB3 extracellular domain I (dI, aa20-207) (Homo sapiens, UniProt P21860); experiment: native gel or EMSA; IgG (30-40 ug) with dI at 1.5x and 3x molar ratios of IgG:dI, 4 uL reaction, 30 min at room temperature; 12.5% native acrylamide gel (PhastGel), stained; loss of free dI read; details: both partners purified
T3 construct: ERBB3/HER3 domain I, aa20-207; Sub-cloned into pSEC-Tag2/HygroA (vector-supplied secretion signal; the vector may add further tag residues); source: HEK293, stably expressed, purified from culture supernatant (IMAC, HisTrap)

[3] = molecular target: T4, ERBB3 extracellular domain III (dIII, aa311-477) (Homo sapiens, UniProt P21860); experiment: pull-down; called immunoprecipitation: scFv coupled to AminoLink agarose (about 80 ug scFv, 20-50 fold excess) incubated 1 h at room temperature with 5 ug ERBB3 ECD fragment in 40 uL; washed 3x with PBS; supernatant and pellet fractions on SDS-PAGE; details: both partners purified
T4 construct: ERBB3/HER3 domain III, aa311-477; Subcloned into pMTBiPV5HISa (vector-supplied secretion signal; the vector may add further tag residues); source: S2 cells, stably expressed, purified from culture supernatant (IMAC, HisTrap)

[4] = molecular target: T5, ERBB3 extracellular domains III-IV (dIII-IV, aa310-616) (Homo sapiens, UniProt P21860); experiment: as above; details: both partners purified
T5 construct: ERBB3/HER3 domains III-IV, aa310-616; source: purified from culture supernatant by IMAC (HisTrap)

[5] = molecular target: T1, intact ERBB3 extracellular domain …; experiment: as above; details: both partners purified
[6] = molecular target: T3, ERBB3 extracellular domain I (dI, …); experiment: as above; details: both partners purified
[7] = molecular target: T6, ERBB3 extracellular domains I-II (dI-II, aa20-329) (Homo sapiens, UniProt P21860); experiment: as above; details: both partners purified
T6 construct: ERBB3/HER3 domains I-II, aa20-329; Sub-cloned into pSEC-Tag2/HygroA (vector-supplied secretion signal; the vector may add further tag residues); source: HEK293, stably expressed, purified from culture supernatant (IMAC, HisTrap)
T6 sequence (P21860 20-329): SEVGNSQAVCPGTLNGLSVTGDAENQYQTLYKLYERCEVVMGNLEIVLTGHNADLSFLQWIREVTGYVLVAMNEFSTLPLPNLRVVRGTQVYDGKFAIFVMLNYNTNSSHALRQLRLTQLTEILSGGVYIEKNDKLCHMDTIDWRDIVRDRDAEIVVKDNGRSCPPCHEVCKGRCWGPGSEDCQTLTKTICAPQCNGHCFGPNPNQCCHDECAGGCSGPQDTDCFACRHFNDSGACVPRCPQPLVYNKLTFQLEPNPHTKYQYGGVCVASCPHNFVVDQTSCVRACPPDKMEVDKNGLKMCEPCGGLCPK

T1 sequence (P21860 20-639): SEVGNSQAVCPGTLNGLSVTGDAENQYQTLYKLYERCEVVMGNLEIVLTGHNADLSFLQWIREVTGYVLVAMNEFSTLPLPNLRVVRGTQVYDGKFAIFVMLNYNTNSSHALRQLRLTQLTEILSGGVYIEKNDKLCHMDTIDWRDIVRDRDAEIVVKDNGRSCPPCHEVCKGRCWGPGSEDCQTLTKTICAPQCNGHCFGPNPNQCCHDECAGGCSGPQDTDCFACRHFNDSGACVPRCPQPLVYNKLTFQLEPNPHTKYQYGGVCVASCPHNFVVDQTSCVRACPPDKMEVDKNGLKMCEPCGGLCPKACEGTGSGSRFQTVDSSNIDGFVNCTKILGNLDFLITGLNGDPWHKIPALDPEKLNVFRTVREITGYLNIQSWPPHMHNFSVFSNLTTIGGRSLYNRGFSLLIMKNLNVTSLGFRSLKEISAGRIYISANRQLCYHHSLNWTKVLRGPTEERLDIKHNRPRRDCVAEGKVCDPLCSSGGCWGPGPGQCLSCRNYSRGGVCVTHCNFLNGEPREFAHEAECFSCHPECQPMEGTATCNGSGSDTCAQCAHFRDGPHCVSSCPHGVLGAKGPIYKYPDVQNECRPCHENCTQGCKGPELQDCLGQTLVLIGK
T3 sequence (P21860 20-207): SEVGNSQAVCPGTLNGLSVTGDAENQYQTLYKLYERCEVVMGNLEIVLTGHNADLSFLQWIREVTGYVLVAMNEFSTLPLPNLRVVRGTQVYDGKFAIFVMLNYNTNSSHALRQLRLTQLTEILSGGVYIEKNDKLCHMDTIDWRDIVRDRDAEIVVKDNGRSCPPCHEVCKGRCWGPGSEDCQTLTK
T2 sequence (P21860 20-1342): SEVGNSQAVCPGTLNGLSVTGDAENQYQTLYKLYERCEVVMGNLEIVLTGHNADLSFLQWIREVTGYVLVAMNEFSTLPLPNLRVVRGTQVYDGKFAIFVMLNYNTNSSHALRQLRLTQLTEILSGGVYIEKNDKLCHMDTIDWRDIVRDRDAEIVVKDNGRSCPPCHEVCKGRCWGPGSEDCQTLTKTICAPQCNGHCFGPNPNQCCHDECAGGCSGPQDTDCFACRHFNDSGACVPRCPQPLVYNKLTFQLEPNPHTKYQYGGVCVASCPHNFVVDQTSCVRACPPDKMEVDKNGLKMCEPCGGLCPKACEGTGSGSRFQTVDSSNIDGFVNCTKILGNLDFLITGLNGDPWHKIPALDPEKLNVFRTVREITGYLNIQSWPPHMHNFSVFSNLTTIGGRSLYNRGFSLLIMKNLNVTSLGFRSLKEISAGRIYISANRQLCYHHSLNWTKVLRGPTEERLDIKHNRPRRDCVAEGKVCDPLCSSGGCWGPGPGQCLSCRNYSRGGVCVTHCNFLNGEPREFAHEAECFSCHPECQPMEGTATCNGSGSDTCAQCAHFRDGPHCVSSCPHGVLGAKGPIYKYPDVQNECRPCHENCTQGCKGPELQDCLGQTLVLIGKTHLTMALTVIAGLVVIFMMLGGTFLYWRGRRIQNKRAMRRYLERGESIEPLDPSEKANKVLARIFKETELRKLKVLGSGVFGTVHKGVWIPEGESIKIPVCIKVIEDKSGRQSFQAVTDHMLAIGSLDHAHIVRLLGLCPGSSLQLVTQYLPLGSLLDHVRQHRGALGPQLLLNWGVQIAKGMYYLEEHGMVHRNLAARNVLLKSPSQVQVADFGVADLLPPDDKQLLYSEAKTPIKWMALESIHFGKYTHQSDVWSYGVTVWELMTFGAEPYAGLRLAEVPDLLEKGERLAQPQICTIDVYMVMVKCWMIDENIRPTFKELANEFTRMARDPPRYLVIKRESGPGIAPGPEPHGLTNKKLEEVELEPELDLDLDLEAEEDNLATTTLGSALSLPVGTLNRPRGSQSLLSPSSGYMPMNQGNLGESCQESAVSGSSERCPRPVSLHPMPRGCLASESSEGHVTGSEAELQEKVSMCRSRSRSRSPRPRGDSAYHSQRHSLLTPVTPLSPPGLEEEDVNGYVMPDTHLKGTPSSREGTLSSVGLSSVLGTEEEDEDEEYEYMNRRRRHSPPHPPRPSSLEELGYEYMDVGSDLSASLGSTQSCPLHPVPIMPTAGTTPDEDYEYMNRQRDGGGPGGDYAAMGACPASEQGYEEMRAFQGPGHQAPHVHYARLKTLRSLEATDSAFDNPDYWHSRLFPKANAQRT
T4 sequence (P21860 311-477): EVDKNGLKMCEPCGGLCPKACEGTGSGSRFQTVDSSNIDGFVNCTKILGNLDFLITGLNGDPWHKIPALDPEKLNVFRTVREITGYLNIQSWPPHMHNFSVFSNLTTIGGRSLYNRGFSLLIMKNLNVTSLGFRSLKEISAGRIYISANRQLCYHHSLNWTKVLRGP
T5 sequence (P21860 310-616): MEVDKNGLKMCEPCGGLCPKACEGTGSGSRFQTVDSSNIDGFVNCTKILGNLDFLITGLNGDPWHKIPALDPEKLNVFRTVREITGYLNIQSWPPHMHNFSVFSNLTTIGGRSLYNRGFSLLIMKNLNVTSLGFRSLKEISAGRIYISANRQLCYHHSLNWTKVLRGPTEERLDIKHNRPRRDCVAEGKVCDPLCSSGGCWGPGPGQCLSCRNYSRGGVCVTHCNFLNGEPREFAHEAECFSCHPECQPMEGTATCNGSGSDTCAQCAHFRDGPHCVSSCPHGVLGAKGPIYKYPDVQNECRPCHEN

Row | Kd [1] | binding result (ERBB3 on BT-474 cells) | binding result [3] | binding result [4] | binding result [5] | binding result [6] | binding result [7] | Binder | binding result [2]
1 | 11.1 nM | binds | – | – | – | – | – | A5 anti-ERBB3 IgG (human IgG1 format) (antibody, V domains shown, A5 variable heavy (Vh) domain; human IgG1 heavy chain constant region; A5 variable light (Vl) domain; light chain constant domain; IgG1; also called A5 IgG; source: purified from conditioned media by protein A chromatography; copies: 2 + 2) VH: QVQLVQSGGGLVKPGGSLRLSCAASGFSFNTYDMNWVRQAPGKGLEWVSSISSSSSYIYYADSVKGRFTISRDNAKNSLYLQMNSLRAEDTAVYYCARDGVATTPFDYWGQGTLVTVSS VL: QSVLTQPPSVSGAPGQRVTISCTGSSSNIGAGYDVHWYQQLPGTAPKLLIYGNSNRPSGVPDRFSGSKSGTSASLAITGLQAEDEADYYCQSYDSSLSALFGGGTKLTVL | no binding (tested: 1.5x and 3x Molar excess of antibody)
2 | – | – | binds | binds | binds | – | – | A5 anti-ERBB3 single-chain Fv (scFv, V domains shown, A5 variable heavy (Vh) domain; linker of the scFv; A5 variable light (Vl) domain; Coupled to AminoLink agarose in the immunoprecipitations; also called A5 scFv) VH: QVQLVQSGGGLVKPGGSLRLSCAASGFSFNTYDMNWVRQAPGKGLEWVSSISSSSSYIYYADSVKGRFTISRDNAKNSLYLQMNSLRAEDTAVYYCARDGVATTPFDYWGQGTLVTVSS VL: QSVLTQPPSVSGAPGQRVTISCTGSSSNIGAGYDVHWYQQLPGTAPKLLIYGNSNRPSGVPDRFSGSKSGTSASLAITGLQAEDEADYYCQSYDSSLSALFGGGTKLTVL | –
3 | 4.8 nM | binds | – | – | – | – | – | F4 anti-ERBB3 IgG (human IgG1 format) (antibody, V domains shown, F4 variable heavy (Vh) domain; human IgG1 heavy chain constant region; F4 variable light (Vl) domain; light chain constant domain; IgG1; also called F4 IgG; source: purified from conditioned media by protein A chromatography; copies: 2 + 2) VH: QVQLQESGGGLVKPGGSLRLSCAASGFTFSSYAMSWVRQAPGKGLEWVSTISGSGGSTYYADSVKGRFTISRDNSKNTLYLQMNSLRAEDTAVYYCAKGYSSSWSEVASGYWGQGTLVTVSS VL: DIVMTQSPSSLSASVGDRVTITCRASQGIRNDLGWYQQKAGKAPKLLIYAASSLQSGVPSRFSGSGSGTDFTLTISSLQPDDFATYFCQQAHSFPPTFGGGTKVEIK | binds
4 | – | – | – | – | binds | binds | binds | F4 anti-ERBB3 single-chain Fv (scFv, V domains shown, F4 variable heavy (Vh) domain; linker of the scFv; F4 variable light (Vl) domain; Coupled to AminoLink agarose in the immunoprecipitations; also called F4 scFv) VH: QVQLQESGGGLVKPGGSLRLSCAASGFTFSSYAMSWVRQAPGKGLEWVSTISGSGGSTYYADSVKGRFTISRDNSKNTLYLQMNSLRAEDTAVYYCAKGYSSSWSEVASGYWGQGTLVTVSS VL: DIVMTQSPSSLSASVGDRVTITCRASQGIRNDLGWYQQKAGKAPKLLIYAASSLQSGVPSRFSGSGSGTDFTLTISSLQPDDFATYFCQQAHSFPPTFGGGTKVEIK | –

Reference: publication PMC4227695, “Combining Anti-ERBB3 Antibodies Specific for Domain I and Domain III Enhances the Anti-Tumor Activity over the Individual Monoclonal Antibodies” (PLoS ONE, 2014)
